Test results as given in the supplement of paper PMC10567573.
± gives the standard deviation.

Test: protein stability index of a GFP-peptide fusion (GPS, HEK-293T) (PSI 1-6); higher = more stable
[1] = treatment: DMSO, c terminus: a fixed tail appended
[2] = treatment: MLN4924 1 uM, 8 h, c terminus: a fixed tail appended
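Further: 24-mer peptide tiles fused after GFP, lentivirally expressed, FACS-sorted into six equal bins by GFP/DsRed ratio, decoded by Illumina sequencing, PSI is the read-weighted mean bin number.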

Row | Sequence | protein stability index [1] | protein stability index [2] | protein stability index (treatment: DMSO, c terminus: native) | protein stability index (treatment: MLN4924 1 uM, 8 h, c terminus: native)
1 | TSTRYEQPKCDNTARAHPAKARDL [SMOC2] | 4.85 ± 0.19 | 5.17 ± 0.27 | – | –
2 | QVAMPYQWEYPYLLSILPSLLGLL [JAGN1] | 2.8 ± 0.36 | 2.85 ± 0.64 | – | –
3 | SYTIITPLFNPMIYSLRNKEFKSA [OR10K2] | 2.74 ± 0.65 | 2.38 ± 0.34 | – | –
4 | ERGTPGLPGPKGDDGKLGATGPMG [SCARA5] | 4.92 ± 0.34 | 4.95 ± 0.15 | – | –
5 | FDMSRYSSSGYSSAEINQDLNIQL [FAM219A] | 3.06 ± 0.27 | 3.12 ± 0.18 | – | –
6 | GLWSRISHLVLPVQPVSSIEEQGC [TOR1AIP2] | 2.44 ± 0.26 | 2.64 ± 0.38 | – | –
7 | TCSTRFVSGGSAGGYGGGVSCGFG [KRT13] | 2.46 ± 0.29 | 2.43 ± 0.31 | – | –
8 | YLRCIQSEVSFEGAYGNLKRLYDK [SMG5] | 2.61 ± 0.26 | 2.64 ± 0.34 | – | –
9 | FQQNHLFWLQNSSPSSDRVSAIIW [PHTF1] | 2.26 ± 0.6 | 2.43 ± 0.49 | – | –
10 | MQAQASIEGAPEVTMSSLFKHILR [SLC25A25] | 2.36 ± 0.32 | 2.14 ± 0.13 | – | –
11 | QWEYPYLLSILPSLLGLLSFPRNN [JAGN1] | 2.85 ± 0.25 | 2.94 ± 0.35 | – | –
12 | FNGELPNGRHKIPESQFPEFSTSL [SRPK2] | 3.51 ± 0.22 | 3.72 ± 0.32 | – | –
13 | RLEALSTERDEIEDVKCQEDQKLQ [TRIM15] | 5.21 ± 0.32 | 5.66 ± 0.16 | – | –
14 | SSSFSNLDLSEEDSDDPSVTLELS [VDR] | 5.35 ± 0.23 | 5.16 ± 0.28 | – | –
15 | GPAGHSKGELAPELGEEPQPRDEE [POLD4] | 5.41 ± 0.23 | 5.43 ± 0.15 | – | –
16 | FATQTEELNKQVVSSSEQLQSYQA [KRT33B] | 4.75 ± 0.24 | 4.64 ± 0.17 | – | –
17 | ESTFMYLTLDLPTAPLYKDEKEQL [USP39] | 3.4 ± 0.2 | 3.55 ± 0.15 | – | –
18 | ATECEFVGSLPVIVVGRLKVALEP [LPCAT4] | 2.36 ± 0.56 | 2.36 ± 0.59 | – | –
19 | GNKCDLEDERVVGKEQGQNLARQW [RAP1B] | 4.7 ± 0.12 | 4.73 ± 0.14 | – | –
20 | FGYLGDRYNRKYLMCGGIAFWSLV [SPNS1] | 3.1 ± 0.51 | 2.75 ± 0.71 | – | –
21 | VHPFVNYNSSRFGEGVERELFVRE [MYORG] | 3.09 ± 0.18 | 3 ± 0.37 | – | –
22 | LQRQAEQNPTASYYNVVLLRYQFS [FCHO1] | 2.23 ± 0.4 | 2.28 ± 0.34 | – | –

Row | Sequence | protein stability index [1] | protein stability index [2] | protein stability index (treatment: DMSO, c terminus: native) | protein stability index (treatment: MLN4924 1 uM, 8 h, c terminus: native)
23 | LPSVPVSVPASDPRSCSSGPAGPY [PLEKHN1] | 4.35 ± 0.21 | 4.39 ± 0.17 | – | –
24 | PKQSGSFRYLQGMLEAGEGGDWPG [PDLIM4] | 3.79 ± 0.34 | 3.96 ± 0.15 | – | –
25 | GRHHSQSTEVQAHPYSTTFQESAS [TEKT4] | 4.31 ± 0.2 | 4.46 ± 0.3 | – | –
26 | SRESSKPRAVLKPRRVCVGGKRRR [PPP2R2C] | 4.94 ± 0.33 | 4.87 ± 0.19 | – | –
27 | MSTFRQEDVEDHYEMGEELGSGQF [DAPK3] | 5.43 ± 0.22 | 5.33 ± 0.48 | – | –
28 | NHAIDIICGFLKERCFRGSSYPVC [OAS1] | 2.88 ± 0.38 | 2.6 ± 0.44 | – | –
29 | YEKAYEGGSELGGWSLGRWTHDGI [CPXM2] | 2.49 ± 0.82 | 2.69 ± 0.16 | – | –
30 | GDLFNGRYHVIRKLGWGHFSTVWL [SRPK2] | 2.19 ± 0.07 | 2.17 ± 0.81 | – | –
31 | DQLYRRKKDNHALVRETDELRRNH [ELOA2] | 4.53 ± 0.42 | 4.48 ± 0.43 | – | –
32 | DSLGGSQEMVQRPQPHRNRAGLDL [TRAF3IP2] | 4.87 ± 0.23 | 4.58 ± 0.41 | – | –
33 | LDFCDFTAEMARVLTDSNHVPLQR [FBXO33] | 3.07 ± 0.46 | 3.26 ± 0.34 | – | –
34 | VSDPQHAARLLRALSSFREESRFC [GAN] | 2.59 ± 0.068 | 2.72 ± 0.19 | – | –
35 | MGWFNNEVGSMKIQSGAWVCYQYP [CRYBA1] | 2.74 ± 0.73 | 2.61 ± 0.29 | – | –
36 | YLLMVTVILLPYVSKVTGWCRDRL [TMEM175] | 3.27 ± 0.62 | 3.22 ± 0.66 | – | –
37 | ENQLVRKQDVLGPSTTPPAHSSSN [SASS6] | 5.19 ± 0.21 | 5.29 ± 0.069 | – | –
38 | QEKKLSFIEALIQQYQEQLDKSTK [TRIM63] | 2.82 ± 0.19 | 3.11 ± 0.5 | – | –
39 | HTRSITSCCFDPDSQRVASVSLDR [WDR88] | 3.53 ± 0.4 | 3.44 ± 0.39 | – | –
40 | LLDFMCRIIPNFYPPLEGHVRQGV [INTS3] | 3.31 ± 0.42 | 2.84 ± 0.41 | – | –
41 | IKQKLGMNLMNELKQNFSKSWHDM [TPD52L1] | 2.09 ± 0.2 | 1.98 ± 0.35 | – | –
42 | TAPSGGQWGAEPEGSCYQTFRQYC [RNF208] | 2.75 ± 0.29 | 2.89 ± 0.18 | – | –
43 | IYGMEGIPEKDMDERRRLLEQKTQ [ZNF207] | 4.6 ± 0.17 | 4.69 ± 0.15 | – | –
44 | GFSPSYEFFAVTRFLVGMMNGGMS [SLC22A15] | 2.54 ± 1.2 | 2.28 ± 0.4 | – | –

Row | Sequence | protein stability index [1] | protein stability index [2] | protein stability index (treatment: DMSO, c terminus: native) | protein stability index (treatment: MLN4924 1 uM, 8 h, c terminus: native)
45 | QVDPGTDLEPGVLMSAQTITSETT [EPB41L3] | 5.21 ± 0.32 | 5.16 ± 0.13 | – | –
46 | EDEAGGRFVAFSGEGQSLRKKGRK [UFD1] | 5.51 ± 0.25 | 5.41 ± 0.46 | – | –
47 | LIDHLALRARNYEYLIRLFQEWEA [TCF25] | 2.1 ± 0.27 | 2.43 ± 0.36 | – | –
48 | ISESMAACTRSLLGDPPPLLTLPR [HDAC6] | 2.98 ± 0.14 | 3.29 ± 0.41 | – | –
49 | SWYPKANNQDFIPFTKKRVGVDRA [ZC2HC1C] | 3.07 ± 0.33 | 2.94 ± 0.15 | – | –
50 | HQPVVRQCGPQTGLQSPGTLQPPE [TBX5] | 4.41 ± 0.27 | 4.63 ± 0.12 | – | –
51 | LSLPARNQAGYFMLPTVITDIKDE [ALDH8A1] | 3.81 ± 0.39 | 3.88 ± 0.27 | – | –
52 | PDVRPPLGRGLVGGQEEASQEAGL [SEPHS2] | 5.27 ± 0.14 | 5.31 ± 0.18 | – | –
53 | PSTTPPAHSSSNTIRSGISPNLNV [SASS6] | 4.29 ± 0.33 | 4.44 ± 0.28 | – | –
54 | LAQQLCTALLFLATPELSIIHCDL [DYRK1B] | 3.04 ± 0.42 | 3.23 ± 0.42 | – | –
55 | RSALWCLGLNAAFWFFALTSLRLV [RETREG3] | 2.91 ± 0.53 | 3.03 ± 0.72 | – | –
56 | KLMKNIRFPLMTPQELINYVQTVD [KLHL13] | 2.87 ± 0.18 | 2.82 ± 0.19 | – | –
57 | KKVSKAAILARIKRTGDGNYKSG [SCD] | – | – | 2.88 ± 1.2 | 3.28 ± 0.21
58 | DAAIHGFRETEKSRWSEASRAILQ [ALKBH7] | 3.8 ± 0.51 | 3.83 ± 0.66 | – | –
59 | ALDLAREFLPQGPVAMRVAKLAIN [AUH] | 2.89 ± 0.18 | 2.83 ± 0.25 | – | –
60 | IPRGFPTIDMGPQLKVVERTRTAT [PTPRD] | 3.92 ± 0.24 | 3.68 ± 0.37 | – | –
61 | CTQVTQDGDIPNIPAEENASTSTP [FAM189A2] | 5.65 ± 0.2 | 5.5 ± 0.33 | – | –
62 | NSWMGSQGPMSQRRENYGVPPRRA [RBMY1A1] | 4.65 ± 0.26 | 4.28 ± 0.16 | – | –
63 | QQQHIECVVCGDKSSGKHYGQFTC [NR2F2] | 3.06 ± 0.24 | 3.12 ± 0.48 | – | –
64 | RIFKLSRHSKGLQILGQTLKASMR [KCNA1] | 2.54 ± 0.4 | 2.65 ± 0.58 | – | –
65 | VSQWYELVVFTASMEIYGSAVADK [CTDNEP1] | 3.26 ± 0.36 | 3.17 ± 0.48 | – | –
66 | VGRTEPELLVAHAYTRYLGDLSGG [HMOX1] | 2.68 ± 0.16 | 2.48 ± 0.08 | – | –

Row | Sequence | protein stability index [1] | protein stability index [2] | protein stability index (treatment: DMSO, c terminus: native) | protein stability index (treatment: MLN4924 1 uM, 8 h, c terminus: native)
67 | SDDAAAPALETQPQGDEEDIASRY [SMOC2] | 5.62 ± 0.18 | 5.47 ± 0.11 | – | –
68 | KQDSYEQGDSSQQSLKGHLRNNFQ [ZC2HC1C] | 4.69 ± 0.24 | 4.84 ± 0.11 | – | –
69 | QPLEASNPALEGLTQPLQGGTPHC [DNAAF3] | 5.11 ± 0.15 | 5.09 ± 0.35 | – | –
70 | LPETLNSPLLETFSDLQVYSYRRL [SLC22A15] | 2.4 ± 0.1 | 2.81 ± 0.27 | – | –
71 | DRLASNVAKRKSSMPQKFLGDKGL [IKZF1] | 3.95 ± 0.11 | 4.05 ± 0.17 | – | –
72 | GPGDSQGRKRRQTSMTDFYHSKRR [CDKN1A] | 3.62 ± 0.42 | 4.78 ± 0.19 | – | –
73 | REWYYGNVTRHQAECALNERGVEG [NCK2] | 3.33 ± 0.12 | 3.68 ± 0.16 | – | –
74 | LIKFQVGLKKLNLHEEEHVLLMAI [VDR] | 2.8 ± 0.62 | 2.73 ± 0.78 | – | –
75 | SPINSPARGTPSPKRMPSGRGGRD [FSD1] | 5.22 ± 0.15 | 5.04 ± 0.35 | – | –
76 | KMETMYPFIVTLEGNALQGPILQK [ZNF449] | 2.53 ± 0.24 | 2.48 ± 0.33 | – | –
77 | LALGPGESLPHRLSCLGQQQQEPP [PLAGL1] | 4.145 ± 0.038 | 4.23 ± 0.15 | – | –
78 | LGALKPLPACEFEMGGSEGIVESI [NETO1] | 4.28 ± 0.2 | 4.31 ± 0.25 | – | –
79 | CASKYGRDWERYTAAVPYRLLPGI [DHCR7] | 2.05 ± 0.24 | 2.2 ± 0.21 | – | –
80 | VLALADEAGYYFFNGNYKVDSPKN [ADAMTSL2] | 2.7 ± 0.23 | 2.86 ± 0.3 | – | –
81 | LTELVQRRITYLQNPKDCSKAKKL [FUT8] | 3.99 ± 0.35 | 4.08 ± 0.24 | – | –
82 | ITYPMLFKLTNKNSDRMTHCGVLE [UFD1] | 2.46 ± 0.17 | 2.43 ± 0.23 | – | –
83 | IPQLEDVSNFLKERTGFSIRPVAG [TPH1] | 2.98 ± 0.34 | 2.98 ± 0.14 | – | –
84 | IANPNSLNHVKSMWYPEIKHFCPR [RHOBTB1] | 2.22 ± 0.13 | 2.4 ± 0.26 | – | –
85 | MVRRLKMVVKTFMDMDQDSEEEKE [PDS5B] | 2.73 ± 0.38 | 3.13 ± 0.26 | – | –
86 | VELVNAACNFEPHESFFSLFSDPR [ZER1] | 2.45 ± 0.13 | 2.54 ± 0.2 | – | –
87 | ASEAFHWDERGRAAAYSPSEALLY [ANKRD9] | 3.37 ± 0.21 | 3.4 ± 0.4 | – | –
88 | YSSGSYDSIKTEVSGCPEDLTVGR [NOL4L] | 4.49 ± 0.23 | 4.44 ± 0.23 | – | –
